Legend:
ZRANB2 (human) [1] = target: ZRANB2 (human) (UniProt O95218); assay: anti-FLAG co-IP from lysate of N-FLAG B3GNT2 cells, mass spectrometry
PSMB6 (human) [2] = target: PSMB6 (human) (UniProt P28072); assay: as above
TRAFD1 (human) = TRAFD1 (human) (UniProt O14545); assay: IgG control IP from lysate of C-FLAG B3GNT2 cells, mass spectrometry
PDIA4 (human) = PDIA4 (human) (UniProt P13667); assay: as above
ZRANB2 (human) [3] = target: ZRANB2 (human) (UniProt O95218); assay: as above
RRBP1 (human) = RRBP1 (human) (UniProt Q9P2E9); assay: as above
EEF2 (human) = EEF2 (human) (UniProt P13639); assay: as above
KPNB1 (human) = KPNB1 (human) (UniProt Q14974); assay: as above
ATAD3A (human) = ATAD3A (human) (UniProt Q9NVI7); assay: as above
SFXN3 (human) = SFXN3 (human) (UniProt Q9BWM7); assay: as above
ERP29 (human) = ERP29 (human) (UniProt P30040); assay: as above
NTPCR (human) = NTPCR (human) (UniProt Q9BSD7); assay: as above
UBTF (human) = UBTF (human) (UniProt P17480); assay: as above
AIFM1 (human) = AIFM1 (human) (UniProt O95831); assay: as above
PSMB4 (human) = PSMB4 (human) (UniProt P28070); assay: as above
HSP90AB1 (human) = HSP90AB1 (human) (UniProt P08238); assay: as above
IFI16 (human) = IFI16 (human) (UniProt Q16666); assay: as above
PSMC2 (human) = PSMC2 (human) (UniProt P35998); assay: as above
RPL34 (human) = RPL34 (human) (UniProt P49207); assay: as above
PSMB6 (human) [4] = target: PSMB6 (human) (UniProt P28072); assay: as above
LARP4 (human) = LARP4 (human) (UniProt Q71RC2); assay: as above
FBXO6 (human) = FBXO6 (human) (UniProt Q9NRD1); assay: as above
FBXO6 (human), sequence (Q9NRD1 whole entry): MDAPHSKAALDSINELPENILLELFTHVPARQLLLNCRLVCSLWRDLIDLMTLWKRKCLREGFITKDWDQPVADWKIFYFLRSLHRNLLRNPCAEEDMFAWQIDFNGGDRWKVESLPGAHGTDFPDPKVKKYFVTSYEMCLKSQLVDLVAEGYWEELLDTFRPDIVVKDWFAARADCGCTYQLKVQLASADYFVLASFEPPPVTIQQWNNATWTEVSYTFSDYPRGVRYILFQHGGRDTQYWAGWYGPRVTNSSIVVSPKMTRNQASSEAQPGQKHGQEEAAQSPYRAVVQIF

DNAJA3 (human) = DNAJA3 (human) (UniProt Q96EY1); assay: as above
PSMA5 (human) = PSMA5 (human) (UniProt P28066); assay: as above
PXN (human) = PXN (human) (UniProt P49023); assay: as above
IPO7 (human) = IPO7 (human) (UniProt O95373); assay: as above
IPO7 (human), sequence (O95373 whole entry): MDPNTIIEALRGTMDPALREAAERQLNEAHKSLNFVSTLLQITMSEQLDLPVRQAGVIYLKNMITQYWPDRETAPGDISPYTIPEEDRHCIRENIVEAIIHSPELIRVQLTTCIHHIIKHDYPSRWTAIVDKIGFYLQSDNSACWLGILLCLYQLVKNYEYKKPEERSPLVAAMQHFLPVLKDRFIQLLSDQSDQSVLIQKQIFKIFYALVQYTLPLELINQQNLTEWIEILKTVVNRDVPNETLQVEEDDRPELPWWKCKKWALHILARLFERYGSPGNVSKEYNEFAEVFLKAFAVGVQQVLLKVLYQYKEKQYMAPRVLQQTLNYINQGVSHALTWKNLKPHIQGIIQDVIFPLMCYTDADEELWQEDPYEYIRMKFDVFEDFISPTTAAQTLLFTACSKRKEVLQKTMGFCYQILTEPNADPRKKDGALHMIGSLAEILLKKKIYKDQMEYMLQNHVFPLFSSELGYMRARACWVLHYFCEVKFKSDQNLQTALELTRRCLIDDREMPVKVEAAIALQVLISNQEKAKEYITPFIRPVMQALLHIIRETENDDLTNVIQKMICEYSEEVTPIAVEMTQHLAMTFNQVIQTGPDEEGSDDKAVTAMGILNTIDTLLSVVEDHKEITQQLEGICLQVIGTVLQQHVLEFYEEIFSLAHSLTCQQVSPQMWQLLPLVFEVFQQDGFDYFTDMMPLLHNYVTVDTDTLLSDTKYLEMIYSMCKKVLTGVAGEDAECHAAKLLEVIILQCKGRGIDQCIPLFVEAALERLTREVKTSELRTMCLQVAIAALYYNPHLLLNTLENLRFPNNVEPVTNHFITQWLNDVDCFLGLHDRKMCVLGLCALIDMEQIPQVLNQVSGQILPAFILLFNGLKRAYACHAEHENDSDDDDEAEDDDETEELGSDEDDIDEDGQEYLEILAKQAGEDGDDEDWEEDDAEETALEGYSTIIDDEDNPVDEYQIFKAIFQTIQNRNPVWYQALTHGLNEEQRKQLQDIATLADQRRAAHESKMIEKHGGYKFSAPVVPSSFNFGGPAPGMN

ABCD1 (human) = ABCD1 (human) (UniProt P33897); assay: as above
ABCD1 (human), sequence (P33897 whole entry): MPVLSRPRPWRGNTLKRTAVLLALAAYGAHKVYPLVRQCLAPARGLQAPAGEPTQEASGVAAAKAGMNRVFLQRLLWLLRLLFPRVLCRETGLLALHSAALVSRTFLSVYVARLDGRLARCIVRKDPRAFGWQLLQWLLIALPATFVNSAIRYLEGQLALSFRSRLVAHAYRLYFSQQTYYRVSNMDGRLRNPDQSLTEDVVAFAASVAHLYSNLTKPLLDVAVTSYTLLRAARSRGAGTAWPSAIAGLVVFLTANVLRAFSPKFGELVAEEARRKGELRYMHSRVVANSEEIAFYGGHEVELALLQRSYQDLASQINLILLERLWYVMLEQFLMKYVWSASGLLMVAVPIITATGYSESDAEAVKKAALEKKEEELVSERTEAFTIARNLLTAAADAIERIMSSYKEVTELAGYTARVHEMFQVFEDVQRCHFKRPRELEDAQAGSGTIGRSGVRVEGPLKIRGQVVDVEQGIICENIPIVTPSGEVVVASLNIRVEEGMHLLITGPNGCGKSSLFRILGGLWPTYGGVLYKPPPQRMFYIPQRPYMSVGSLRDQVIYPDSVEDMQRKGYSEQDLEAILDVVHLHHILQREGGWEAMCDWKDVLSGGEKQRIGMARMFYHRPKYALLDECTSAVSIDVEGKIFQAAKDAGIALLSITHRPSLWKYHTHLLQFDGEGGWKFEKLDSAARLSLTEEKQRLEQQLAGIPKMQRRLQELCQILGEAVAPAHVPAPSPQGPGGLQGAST

SLC25A22 (human) = SLC25A22 (human) (UniProt Q9H936); assay: as above
ACSL3 (human) = ACSL3 (human) (UniProt O95573); assay: as above
ACSL3 (human), sequence (O95573 whole entry): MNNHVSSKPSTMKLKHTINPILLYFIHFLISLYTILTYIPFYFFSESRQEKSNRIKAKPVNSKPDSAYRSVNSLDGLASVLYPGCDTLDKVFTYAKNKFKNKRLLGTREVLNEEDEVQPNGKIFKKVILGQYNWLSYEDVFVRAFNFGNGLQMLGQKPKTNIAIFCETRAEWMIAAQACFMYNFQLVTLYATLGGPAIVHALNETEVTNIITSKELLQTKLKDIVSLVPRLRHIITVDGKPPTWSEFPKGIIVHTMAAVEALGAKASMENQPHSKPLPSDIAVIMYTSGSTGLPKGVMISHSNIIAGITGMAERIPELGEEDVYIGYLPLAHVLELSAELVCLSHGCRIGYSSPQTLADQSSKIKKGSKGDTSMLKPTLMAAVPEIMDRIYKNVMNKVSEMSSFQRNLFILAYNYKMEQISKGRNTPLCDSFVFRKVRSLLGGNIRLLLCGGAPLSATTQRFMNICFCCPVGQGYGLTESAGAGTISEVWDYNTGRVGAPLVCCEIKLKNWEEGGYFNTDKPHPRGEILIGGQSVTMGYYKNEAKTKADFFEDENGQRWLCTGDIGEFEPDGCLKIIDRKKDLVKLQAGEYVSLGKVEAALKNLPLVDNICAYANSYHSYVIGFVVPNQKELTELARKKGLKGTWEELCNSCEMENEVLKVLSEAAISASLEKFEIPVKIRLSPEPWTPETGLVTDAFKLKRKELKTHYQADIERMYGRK

H1FX (human) = H1FX (human) (UniProt Q92522); assay: as above
RPS6 (human) = RPS6 (human) (UniProt P62753); assay: as above
STAU1 (human) = STAU1 (human) (UniProt O95793); assay: as above
STAU1 (human), sequence (O95793 other isoform, or with tags, fused parts or gaps limits assumed): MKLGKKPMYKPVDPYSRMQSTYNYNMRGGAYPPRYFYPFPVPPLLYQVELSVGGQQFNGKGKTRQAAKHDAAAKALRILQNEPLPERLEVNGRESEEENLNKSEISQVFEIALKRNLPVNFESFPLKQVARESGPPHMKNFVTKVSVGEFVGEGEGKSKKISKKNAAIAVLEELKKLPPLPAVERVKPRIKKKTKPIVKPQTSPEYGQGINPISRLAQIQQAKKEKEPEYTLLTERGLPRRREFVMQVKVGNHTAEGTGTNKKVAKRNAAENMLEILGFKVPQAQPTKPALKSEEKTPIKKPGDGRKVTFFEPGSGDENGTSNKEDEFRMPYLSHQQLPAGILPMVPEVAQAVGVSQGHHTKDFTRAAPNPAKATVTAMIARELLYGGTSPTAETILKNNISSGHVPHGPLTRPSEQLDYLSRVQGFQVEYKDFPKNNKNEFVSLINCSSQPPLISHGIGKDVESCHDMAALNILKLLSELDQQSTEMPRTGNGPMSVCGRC

ERP44 (human) = ERP44 (human) (UniProt Q9BS26); assay: as above
TECR (human) = TECR (human) (UniProt Q9NZ01); assay: as above
TECR (human), sequence (Q9NZ01 whole entry): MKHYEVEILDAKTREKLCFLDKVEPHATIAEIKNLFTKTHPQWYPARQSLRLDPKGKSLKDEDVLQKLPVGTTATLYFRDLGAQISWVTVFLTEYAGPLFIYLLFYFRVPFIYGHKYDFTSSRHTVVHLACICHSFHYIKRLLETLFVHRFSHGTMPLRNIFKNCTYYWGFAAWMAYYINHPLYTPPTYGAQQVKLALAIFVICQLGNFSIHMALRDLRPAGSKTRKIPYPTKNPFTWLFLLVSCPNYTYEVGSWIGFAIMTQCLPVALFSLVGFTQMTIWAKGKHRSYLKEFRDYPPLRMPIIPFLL

RPL15 (human) = RPL15 (human) (UniProt P61313); assay: as above
TUBA1C (human) = TUBA1C (human) (UniProt Q9BQE3); assay: as above
HDGFL2 (human) = HDGFL2 (human) (UniProt Q7Z4V5); assay: as above
LDHA (human) = LDHA (human) (UniProt P00338); assay: as above
KTN1 (human) = KTN1 (human) (UniProt Q86UP2); assay: as above

ZRANB2 (human), sequence (O95218 other isoform, or with tags, fused parts or gaps limits assumed): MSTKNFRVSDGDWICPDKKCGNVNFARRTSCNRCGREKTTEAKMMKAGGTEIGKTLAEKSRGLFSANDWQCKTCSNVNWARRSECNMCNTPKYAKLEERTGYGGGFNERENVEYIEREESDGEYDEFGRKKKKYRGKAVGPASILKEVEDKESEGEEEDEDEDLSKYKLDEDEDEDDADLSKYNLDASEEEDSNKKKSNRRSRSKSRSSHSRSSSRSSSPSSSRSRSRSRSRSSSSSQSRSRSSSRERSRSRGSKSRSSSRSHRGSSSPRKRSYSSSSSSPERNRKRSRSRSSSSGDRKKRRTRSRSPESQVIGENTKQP
PSMB6 (human), sequence (P28072 35-239 limits assumed): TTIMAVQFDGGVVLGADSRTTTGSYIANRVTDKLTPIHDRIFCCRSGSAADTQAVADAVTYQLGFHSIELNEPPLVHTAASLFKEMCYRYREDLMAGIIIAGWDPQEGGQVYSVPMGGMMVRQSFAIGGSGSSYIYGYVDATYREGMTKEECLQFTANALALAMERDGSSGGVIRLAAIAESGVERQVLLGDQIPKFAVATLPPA
TRAFD1 (human), sequence (O14545 2-582 limits assumed): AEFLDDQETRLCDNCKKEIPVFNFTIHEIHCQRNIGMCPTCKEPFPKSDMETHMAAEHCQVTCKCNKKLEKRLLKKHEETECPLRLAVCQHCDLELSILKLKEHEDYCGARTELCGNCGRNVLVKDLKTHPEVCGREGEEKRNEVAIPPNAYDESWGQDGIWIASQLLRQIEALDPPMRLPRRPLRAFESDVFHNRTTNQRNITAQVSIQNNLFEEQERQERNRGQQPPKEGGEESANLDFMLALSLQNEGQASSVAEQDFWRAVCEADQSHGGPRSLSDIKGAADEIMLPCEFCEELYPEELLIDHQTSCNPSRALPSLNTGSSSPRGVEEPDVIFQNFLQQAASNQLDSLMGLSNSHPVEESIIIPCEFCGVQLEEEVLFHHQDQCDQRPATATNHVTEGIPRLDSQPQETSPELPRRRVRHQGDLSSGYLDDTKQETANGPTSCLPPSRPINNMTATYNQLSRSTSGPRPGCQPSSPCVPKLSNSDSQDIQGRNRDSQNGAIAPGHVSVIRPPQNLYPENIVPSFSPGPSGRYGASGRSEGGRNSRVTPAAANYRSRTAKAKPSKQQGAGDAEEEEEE

N-terminal FLAG tagged B3GNT2 (from UniProt Q9NY97 1-397) (enzyme)
co-IP mass spectrometry count (ZRANB2 (human) [1]): 5 | co-IP mass spectrometry count (PSMB6 (human) [2]): 5

IgG control (Millipore Sigma 12-371) (antibody)
co-IP mass spectrometry count (TRAFD1 (human)): 0 | co-IP mass spectrometry count (PDIA4 (human)): 0 | co-IP mass spectrometry count (ZRANB2 (human) [3]): 0 | co-IP mass spectrometry count (RRBP1 (human)): 2 | co-IP mass spectrometry count (EEF2 (human)): 0 | co-IP mass spectrometry count (KPNB1 (human)): 0 | co-IP mass spectrometry count (ATAD3A (human)): 0 | co-IP mass spectrometry count (SFXN3 (human)): 0 | co-IP mass spectrometry count (ERP29 (human)): 0 | co-IP mass spectrometry count (NTPCR (human)): 0 | co-IP mass spectrometry count (UBTF (human)): 0 | co-IP mass spectrometry count (AIFM1 (human)): 0 | co-IP mass spectrometry count (PSMB4 (human)): 0 | co-IP mass spectrometry count (HSP90AB1 (human)): 2 | co-IP mass spectrometry count (IFI16 (human)): 0 | co-IP mass spectrometry count (PSMC2 (human)): 0 | co-IP mass spectrometry count (RPL34 (human)): 0 | co-IP mass spectrometry count (PSMB6 (human) [4]): 0 | co-IP mass spectrometry count (LARP4 (human)): 0 | co-IP mass spectrometry count (FBXO6 (human)): 0 | co-IP mass spectrometry count (DNAJA3 (human)): 0 | co-IP mass spectrometry count (PSMA5 (human)): 0 | co-IP mass spectrometry count (PXN (human)): 0 | co-IP mass spectrometry count (IPO7 (human)): 0 | co-IP mass spectrometry count (ABCD1 (human)): 0 | co-IP mass spectrometry count (SLC25A22 (human)): 0 | co-IP mass spectrometry count (ACSL3 (human)): 0 | co-IP mass spectrometry count (H1FX (human)): 0 | co-IP mass spectrometry count (RPS6 (human)): 2 | co-IP mass spectrometry count (STAU1 (human)): 0 | co-IP mass spectrometry count (ERP44 (human)): 0 | co-IP mass spectrometry count (TECR (human)): 0 | co-IP mass spectrometry count (RPL15 (human)): 2 | co-IP mass spectrometry count (TUBA1C (human)): 14 | co-IP mass spectrometry count (HDGFL2 (human)): 0 | co-IP mass spectrometry count (LDHA (human)): 0 | co-IP mass spectrometry count (KTN1 (human)): 0

From US20240261333A1, “NOVEL TARGETS FOR ENHANCING ANTI-TUMOR IMMUNITY” (THE BROAD INSTITUTE, INC., priority 2021, published 2024)
